Measurements as given in the supplement of paper PMC9233669.
Fewer inactive variants are shown than the library holds.

How the values were obtained:
[1] = tested on: biotinyl-Phe-oxazolone; assay: self-aminoacylation, catalytic enhancement (BFO) (fold over background); higher = more active; k-Seq, kA / k0A0; sequences stand for … in GGGAAUGGAUCCACAUCUACGAAUUC…UUCACUGCAGACUUGACGAAGCUG
Method in brief: (§1)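 Catalytic enhancement equals the median kA over the uncatalyzed rate, the latter read from the low-activity peak of a bimodal Gaussian fit. Values of kA came from fitting each sequence's fraction reacted to a pseudo-first-order model, with 1000 bootstraps. Reacted RNA was captured with streptavidin and quantified by triplicate qPCR and Illumina sequencing after 90 minutes at room temperature with 2–1250 μM biotinyl-aminoacyl-oxazolone and 0.43 μM mutagenized RNA pools bearing a 21-nt variable region.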

[2] = tested on: biotinyl-Ile-oxazolone; assay: self-aminoacylation, catalytic enhancement (BIO) (fold over background); higher = more active; k-Seq, kA / k0A0; sequences stand for … in GGGAAUGGAUCCACAUCUACGAAUUC…UUCACUGCAGACUUGACGAAGCUG
Method in brief: as §1

[3] = tested on: biotinyl-Met-oxazolone; assay: self-aminoacylation, catalytic enhancement (BMO) (fold over background); higher = more active; k-Seq, kA / k0A0; sequences stand for … in GGGAAUGGAUCCACAUCUACGAAUUC…UUCACUGCAGACUUGACGAAGCUG
Method in brief: as §1

[4] = tested on: biotinyl-Val-oxazolone; assay: self-aminoacylation, catalytic enhancement (BVO) (fold over background); higher = more active; k-Seq, kA / k0A0; sequences stand for … in GGGAAUGGAUCCACAUCUACGAAUUC…UUCACUGCAGACUUGACGAAGCUG
Method in brief: as §1

[5] = tested on: biotinyl-Leu-oxazolone; assay: self-aminoacylation, catalytic enhancement (BLO) (fold over background); higher = more active; k-Seq, kA / k0A0; sequences stand for … in GGGAAUGGAUCCACAUCUACGAAUUC…UUCACUGCAGACUUGACGAAGCUG
Method in brief: as §1

[6] = tested on: biotinyl-Trp-oxazolone; assay: self-aminoacylation, catalytic enhancement (BWO) (fold over background); higher = more active; k-Seq, kA / k0A0; sequences stand for … in GGGAAUGGAUCCACAUCUACGAAUUC…UUCACUGCAGACUUGACGAAGCUG
Method in brief: as §1

Row | Sequence | self-aminoacylation [1] | self-aminoacylation [2] | self-aminoacylation [3] | self-aminoacylation [4] | self-aminoacylation [5] | self-aminoacylation [6]
1 | CCUCACUUCAAGCAAUUGGUC [Fam1B.1 aminoacylation ribozyme variant] | 1.67 | 0.654 | 0.562 | 0.606 | 0.506 | 0.673
2 | CCACCCUUCAAACAAUCGGUC [Fam1B.1 aminoacylation ribozyme variant] | 81.3 | 1.39 | 1.43 | 1.86 | 2.18 | 38.9
3 | AAGUUUGAUAAUAGUCACAAG [Fam3.1 aminoacylation ribozyme variant] | 0.914 | 0.649 | 0.716 | 0.742 | 0.547 | 0.877
4 | AUGUUUACUAAUAGUCGCAAG [Fam3.1 aminoacylation ribozyme variant] | 1.92 | 1.67 | 1.61 | 1.7 | 1.52 | 2.07
5 | AUUACCGAGGUCAUCGAGUGA [Fam2.1 aminoacylation ribozyme variant] | 38.1 | 3.99 | 6.93 | 4.64 | 8.4 | 10.8
6 | AUUAACCUAGGUGAUCGGGUG [Fam2.2 aminoacylation ribozyme variant] | 8.95 | 2.31 | 3.25 | 2.1 | 3.63 | 2.9
7 | AUUCACCUAUGUCUUCGGGUG [Fam2.2 aminoacylation ribozyme variant] | 14.7 | 2.11 | 2.42 | 2.02 | 2.67 | 2.35
8 | GUUCAUCUAGGUCAUCGGGUG [Fam2.2 aminoacylation ribozyme variant] | 35.3 | 4.19 | 5.79 | 3.72 | 7.61 | 7.23
9 | AAUCACCUAGGCCAUCGGGUG [Fam2.2 aminoacylation ribozyme variant] | 25.5 | 2.88 | 3 | 3.86 | 3.01 | 5.04
10 | CUUCUUCACACAAUCGGUCUG [Fam1A.1 aminoacylation ribozyme variant] | 0.889 | 0.714 | 0.749 | 0.782 | 0.775 | 0.81
11 | AUUCUCCUAGGGCAUCGGGUG [Fam2.2 aminoacylation ribozyme variant] | 28.7 | 2.92 | 4.21 | 3.73 | 4.7 | 3.58
12 | AUGCACCUAGAUCAUCGGGUG [Fam2.2 aminoacylation ribozyme variant] | 10.6 | 2.13 | 2.41 | 2.69 | 2.64 | 3.8
13 | AUUCACCUAGGUCAUAGCGUG [Fam2.2 aminoacylation ribozyme variant] | 17.1 | 2.46 | 3.36 | 2.15 | 4.63 | 3.55
14 | AUUCACCUAGGUCAUGGGGCG [Fam2.2 aminoacylation ribozyme variant] | 1.37 | 2.18 | 2.3 | 2.27 | 3.14 | 2.15
15 | AUAACCCUGGUCAUCGAGUGU [Fam2.1 aminoacylation ribozyme variant] | 69.6 | 6.98 | 20 | 7.4 | 17.9 | 16.4
16 | AUACUUCAAACAGUCGGUCUG [Fam1A.1 aminoacylation ribozyme variant] | 0.584 | 0.876 | 0.965 | 0.699 | 0.996 | 0.831
17 | AUUCACCUAGGUCUUAGGGUG [Fam2.2 aminoacylation ribozyme variant] | 32.2 | 3.08 | 5.1 | 2.85 | 7.06 | 4.24
18 | CUACUUCAAAGAAUUGGUCUG [Fam1A.1 aminoacylation ribozyme variant] | 0.605 | 1.18 | 0.954 | 0.912 | 1.08 | 0.806
19 | AAGUUCGCAAAUAGUCGCAAG [Fam3.1 aminoacylation ribozyme variant] | 3.4 | 1.84 | 2.13 | 1.44 | 2.86 | 1.42
20 | AAGUAUGCUAAUAGUCGCAUG [Fam3.1 aminoacylation ribozyme variant] | 1.66 | 1.34 | 1.45 | 1.09 | 1.55 | 1.84
21 | AUUCACCUCGGACAUCGGGUG [Fam2.2 aminoacylation ribozyme variant] | 40.1 | 3.09 | 4.76 | 4.74 | 6.78 | 5.08
22 | CUACAUCAAACAAUCGGUCUU [Fam1A.1 aminoacylation ribozyme variant] | 1.45 | 0.69 | 0.791 | 0.748 | 0.615 | 1.25
23 | CUACUUCAAACAAUCGGCCUC [Fam1A.1 aminoacylation ribozyme variant] | 11.8 | 1.8 | 1.63 | 1.88 | 1.89 | 7.78
24 | AAAUUUGCUAAUAGUCGCCAG [Fam3.1 aminoacylation ribozyme variant] | 4.62 | 2.08 | 1.75 | 2.15 | 1.67 | 2.92
25 | AAGAUUGCUAAUAGUCGCUAG [Fam3.1 aminoacylation ribozyme variant] | 0.773 | 1.23 | 0.811 | 1.04 | 0.963 | 0.937
26 | AGUCACCUAGGUCAUUGGGUG [Fam2.2 aminoacylation ribozyme variant] | 25.8 | 3.03 | 4.22 | 3.26 | 4.04 | 3.42

Row | Sequence | self-aminoacylation [1] | self-aminoacylation [2] | self-aminoacylation [3] | self-aminoacylation [4] | self-aminoacylation [5] | self-aminoacylation [6]
27 | AUUACCCGCGUCAUCGAGUGA [Fam2.1 aminoacylation ribozyme variant] | 24.9 | 2.37 | 4.55 | 2.8 | 4.6 | 5.55
28 | AUUACCCUGGCCAUCGCGUGA [Fam2.1 aminoacylation ribozyme variant] | 56.3 | 4.28 | 6.31 | 4.81 | 11 | 8.64
29 | AAUUUUGCUAAUAGUCGCAAU [Fam3.1 aminoacylation ribozyme variant] | 2.09 | 2.95 | 2.88 | 2.13 | 2.91 | 2.09
30 | CCAUACUUCAAGCGAUCGGUC [Fam1B.1 aminoacylation ribozyme variant] | 1.17 | 1.15 | 1.02 | 1.25 | 0.976 | 0.926
31 | CAACUUCAAACCAUCGGUCUG [Fam1A.1 aminoacylation ribozyme variant] | 1.41 | 1.06 | 0.913 | 1.1 | 1.07 | 1.14
32 | CUACUUCAAGCAAUCGGUAUG [Fam1A.1 aminoacylation ribozyme variant] | 8.16 | 0.94 | 1.07 | 0.963 | 1.02 | 4.52
33 | CUACUCCAAACAAUCCGUCUG [Fam1A.1 aminoacylation ribozyme variant] | 0.642 | 0.838 | 0.636 | 0.821 | 0.759 | 0.582
34 | CCACACUUCUAGCAAUAGGUC [Fam1B.1 aminoacylation ribozyme variant] | 0.978 | 0.629 | 0.554 | 0.666 | 0.53 | 0.429
35 | AUUACCCUGAUCGUCGAGUGA [Fam2.1 aminoacylation ribozyme variant] | 0.434 | 0.89 | 0.75 | 0.862 | 0.865 | 0.86
36 | CUACUUCAAACAAUCGGUUUU [Fam1A.1 aminoacylation ribozyme variant] | 2.35 | 1.31 | 0.931 | 1.26 | 1.1 | 1.44
37 | AUUACCCUGGUUAUCGGGUGA [Fam2.1 aminoacylation ribozyme variant] | 94.3 | 5.12 | 12.8 | 6.66 | 13.6 | 14.8
38 | AAGUUUGCUAAUAGUCGCAAG [Fam3.1 aminoacylation ribozyme variant] | 32 | 1.33 | 1.47 | 1.15 | 1.01 | 7.99
39 | AAGUUUGUCAAUAGUCGCAAG [Fam3.1 aminoacylation ribozyme variant] | 3.72 | 2.03 | 1.87 | 1.78 | 2.25 | 1.95
40 | CUACGUAAAACAAUCGGUCUG [Fam1A.1 aminoacylation ribozyme variant] | 1.38 | 1.18 | 0.999 | 0.999 | 0.755 | 0.819
41 | AAGGUUGCUAAUAGUCUCAAG [Fam3.1 aminoacylation ribozyme variant] | 2.46 | 1.13 | 1.05 | 0.996 | 0.944 | 1.52
42 | AUUACCCUUGUCAUCAAGUGA [Fam2.1 aminoacylation ribozyme variant] | 12.5 | 2.2 | 4.86 | 2.77 | 4.43 | 6.3
43 | CCCCACUUCAAGCAAUCCGUC [Fam1B.1 aminoacylation ribozyme variant] | 3.48 | 1.62 | 1 | 1.6 | 1.02 | 2.64
44 | CUACUUCCAGCAAUCGGUCUG [Fam1A.1 aminoacylation ribozyme variant] | 0.605 | 0.87 | 0.77 | 0.961 | 1.04 | 0.458
45 | AUUCCCCUAGGUCAUCAGGUG [Fam2.2 aminoacylation ribozyme variant] | 29.4 | 6.44 | 8.46 | 6.96 | 8.19 | 7.46
46 | CUACUUCUAACAAUCGGUCGG [Fam1A.1 aminoacylation ribozyme variant] | 0.725 | 0.843 | 0.626 | 0.728 | 0.978 | 0.653
47 | AUGACCCUGGUCAUCGAGUUA [Fam2.1 aminoacylation ribozyme variant] | 9.13 | 2.81 | 6.25 | 2.44 | 5.29 | 3.71
48 | AUUCACUUAGGUCAUCGGGUC [Fam2.2 aminoacylation ribozyme variant] | 0.826 | 1.04 | 1.22 | 1.2 | 0.969 | 1.06
49 | CUACUUCAAACAAUCGAUUUG [Fam1A.1 aminoacylation ribozyme variant] | 1.26 | 0.717 | 0.63 | 0.657 | 0.482 | 0.752
50 | AUUCACCUAGGCCAUCGGUUG [Fam2.2 aminoacylation ribozyme variant] | 8.73 | 1.08 | 1.05 | 1.04 | 1.32 | 0.695
51 | AAUCACCUAGGUAAUCGGGUG [Fam2.2 aminoacylation ribozyme variant] | 14.1 | 2.64 | 2.67 | 2.08 | 3.17 | 4.18
